In the supplement of paper PMC7877785:
± gives the uncertainty stated by the source.

Assay: self-splicing fitness, log relative to wild type (ln ratio); higher = more splicing; Tetrahymena group I intron in knt gene, E. coli kanamycin selection, DiMSum; sequences stand for … in CUCUCU…GGAGGGAAAAGUUAUCAGGCAUGCACCUGGUAGCUAGUCUUUAAACCAAUAGAUUGCAUCGGUUUAAAAGGCAAGACCGUCAAAUUGCGGGAAAGGGGUCAACAGCCGUUCAGUACCAAGUCUCAGGGGAAACUUUGAGAUGGCCUUGCAAAGGGUAUGGUAAUAAGCUGACGGACAUGGUCCUAACCACGCAGCCAAGUCCUAAGUCAACAGAUCUUCUGUUGAUAUGGAUGCAGUUCACAGACUAAAUGUCGGUCGGGGAAGAUGUAUUCUUCUCAUAAGAUAUAGUCGGACCUCUCCUUAAUGGGAGCUAGCGGAUGAAGUGAUGCAACACUGGAGCCGCUGGGAACUAAUUUGUAUGCGAAAGUAUAUUGAUUAGUUUUGGAGUACUCGUGGUCG
How it was run: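 A randomised library covering all eight P1ex-region intron nucleotides was built with the intron in the knt kanamycin-resistance gene on pET-22b(+) and held in E. coli BL21(DE3). Cells were grown overnight at 37°C or 30°C on LB agar, with or without 25 μg/mL kanamycin, plus 100 μg/mL carbenicillin, 50 μM IPTG and 0.2% rhamnose, and pooled colonies were amplicon-sequenced on an Illumina HiSeq 2500. DiMSum fitness is the error-weighted combination of wild-type-normalised replicate fold changes, kanamycin versus none.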

Sequence | self-splicing fitness (ln) (30 °C) | self-splicing fitness (ln) (37 °C)
GCCCAGCAAUAUUACGAACA | -1.58 ± 0.12 | -1.46 ± 0.11
GCGGAGCAAUAUUACGCGGC | -3.04 ± 0.48 | 
AGCAAGCAAUAUUACGGUGC | -1.6 ± 0.11 | -3.4 ± 0.22
GUGGAGCAAUAUUACGCGAC | -2.22 ± 0.48 | 
AACCAGCAAUAUUACGGUUU | -3.26 ± 0.12 | -2.96 ± 0.17
GGUCAGCAAUAUUACGAUAC | -1.32 ± 0.16 | -1.59 ± 0.19
UGACAGCAAUAUUACGUAGA | -2.29 ± 0.085 | -1.14 ± 0.11
AUAGAGCAAUAUUACGUAUG | -3.22 ± 0.17 | -0.602 ± 0.14
UCCAAGCAAUAUUACGUGGC | -3.9 ± 0.27 | -2.97 ± 0.33
UCUCAGCAAUAUUACGCUUC | -2.92 ± 0.21 | -2.33 ± 0.28
UAGAAGCAAUAUUACGGUCA | -0.346 ± 0.095 | -0.338 ± 0.11
AACCAGCAAUAUUACGAAUA | -2.32 ± 0.13 | -1.71 ± 0.097
CUCCAGCAAUAUUACGGUCU | -4 ± 0.23 | -2.31 ± 0.2
CCCAAGCAAUAUUACGAAUU | -3.33 ± 0.12 | -2.87 ± 0.15
CUAAAGCAAUAUUACGUCAG | -0.715 ± 0.064 | 0.333 ± 0.1
CCCCAGCAAUAUUACGGUGA | -1.76 ± 0.085 | -1.77 ± 0.11
CUGCAGCAAUAUUACGACAG | -2.43 ± 0.13 | -1.56 ± 0.18
UACCAGCAAUAUUACGCAUU | -2.42 ± 0.092 | -0.373 ± 0.078
ACGCAGCAAUAUUACGGCAU | -0.55 ± 0.059 | 0.0845 ± 0.072
CCAGAGCAAUAUUACGUACG | -1.46 ± 0.12 | -0.669 ± 0.13
UAGUAGCAAUAUUACGACAC |  | -1.67 ± 0.26
UAGCAGCAAUAUUACGUGCC | -1.84 ± 0.17 | -1.2 ± 0.21
AUAGAGCAAUAUUACGUGGC | -3.18 ± 0.4 | -2.7 ± 0.26
UGGUAGCAAUAUUACGCUAG | -2.07 ± 0.13 | -1.82 ± 0.16
AAAUAGCAAUAUUACGAGGA | -2.72 ± 0.19 | -1.88 ± 0.18
AAUGAGCAAUAUUACGUAAC | -3.92 ± 0.27 | -2.45 ± 0.21

Sequence | self-splicing fitness (ln) (30 °C) | self-splicing fitness (ln) (37 °C)
CGUUAGCAAUAUUACGAAAU | -3.82 ± 0.35 | -2.2 ± 0.28
CACAAGCAAUAUUACGUUCU | -2.84 ± 0.12 | -2.42 ± 0.12
CCAAAGCAAUAUUACGGACA | -2.84 ± 0.2 | -2.86 ± 0.25
UCUGAGCAAUAUUACGGCGA | -0.309 ± 0.12 | 0.122 ± 0.18
CCAAAGCAAUAUUACGGGCA | -3.47 ± 0.19 | -2.86 ± 0.2
GAUUAGCAAUAUUACGAGAC | -1.51 ± 0.3 | -1.1 ± 0.22
UCGGAGCAAUAUUACGUGGC |  | -1.95 ± 0.38
UGACAGCAAUAUUACGGAAC | -2.81 ± 0.24 | -2.42 ± 0.24
AAGGAGCAAUAUUACGUUCC | -3.48 ± 0.32 | -2.98 ± 0.35
UACAAGCAAUAUUACGUUAA | -3.35 ± 0.14 | -1.74 ± 0.092
AUUGAGCAAUAUUACGUACC |  | -1.17 ± 0.46
UUAGAGCAAUAUUACGAUAA | -0.0105 ± 0.13 | 0.418 ± 0.18
AAAUAGCAAUAUUACGUAUU | -2.56 ± 0.11 | -0.844 ± 0.094
CCCAAGCAAUAUUACGGUCA | -2.13 ± 0.12 | -2.22 ± 0.14
CUAAAGCAAUAUUACGGGGU | -3.19 ± 0.14 | -2.94 ± 0.17
ACAGAGCAAUAUUACGAUGC | -2.74 ± 0.14 | -2.47 ± 0.29
CAAUAGCAAUAUUACGAUAA | -3.24 ± 0.48 | -3.1 ± 0.33
GCUCAGCAAUAUUACGUGGA | -1.91 ± 0.1 | -1.63 ± 0.12
AGGAAGCAAUAUUACGCGAC | -2.62 ± 0.45 | -0.793 ± 0.31
GACCAGCAAUAUUACGCAUC | -0.629 ± 0.064 | -0.599 ± 0.076
CAGAAGCAAUAUUACGUGUA | -3.81 ± 0.17 | -1.25 ± 0.094
GUAUAGCAAUAUUACGGCAA | -0.453 ± 0.39 | -0.521 ± 0.35
GAAGAGCAAUAUUACGAAUG | -2.23 ± 0.4 | 
GUCAAGCAAUAUUACGUGUC | -2.72 ± 0.13 | -1.46 ± 0.12
GCUAAGCAAUAUUACGUCCG | -1.53 ± 0.13 | -0.712 ± 0.15
AGCAAGCAAUAUUACGCCCA | -0.157 ± 0.17 | -0.704 ± 0.22

Sequence | self-splicing fitness (ln) (30 °C) | self-splicing fitness (ln) (37 °C)
CCAUAGCAAUAUUACGCCGA | -1.4 ± 0.26 | -1.57 ± 0.42
CAUCAGCAAUAUUACGCUUA | -1.77 ± 0.13 | -0.562 ± 0.11
ACUAAGCAAUAUUACGAGCA | -1.29 ± 0.086 | -0.197 ± 0.098
GGUGAGCAAUAUUACGUAAU | -1.71 ± 0.27 | -0.991 ± 0.31
GAACAGCAAUAUUACGGAAA | -2.42 ± 0.16 | -1.12 ± 0.14
AGUAAGCAAUAUUACGAAAC | -3.94 ± 0.36 | 
AAAUAGCAAUAUUACGCAAG | -2.14 ± 0.094 | -1.13 ± 0.11
UGUGAGCAAUAUUACGUAAA | -2.31 ± 0.15 | -1.31 ± 0.21
GUCCAGCAAUAUUACGUUUU | -1.19 ± 0.052 | -0.221 ± 0.069
UGAGAGCAAUAUUACGUAUU | -3.22 ± 0.34 | -1 ± 0.21
CAGUAGCAAUAUUACGAGCA | -2.59 ± 0.3 | -2.3 ± 0.27
UAGGAGCAAUAUUACGAGGA | -2.78 ± 0.37 | 
GUUAAGCAAUAUUACGAAUU | -1.72 ± 0.21 | -1.4 ± 0.24
CUGUAGCAAUAUUACGAUCA | -2.29 ± 0.25 | -1.96 ± 0.42
AUCUAGCAAUAUUACGGGCC | -3.15 ± 0.23 | -2.18 ± 0.22
GGCAAGCAAUAUUACGGUUC | -0.000497 ± 0.07 | -0.268 ± 0.1
CGUGAGCAAUAUUACGUCUG | -0.656 ± 0.072 | 0.0039 ± 0.094
CCAAAGCAAUAUUACGCAAU | -4.04 ± 0.24 | -1.46 ± 0.18
GGCCAGCAAUAUUACGUCGA | -2.72 ± 0.21 | -1.46 ± 0.2
GAUCAGCAAUAUUACGAGAU | -3 ± 0.15 | -1.55 ± 0.13
AUGGAGCAAUAUUACGAUGU | -1.25 ± 0.14 | -0.184 ± 0.2
UUUGAGCAAUAUUACGAACU | -3.36 ± 0.28 | -2.77 ± 0.31
AGUCAGCAAUAUUACGCACC | -0.932 ± 0.12 | 0.383 ± 0.13
AUGUAGCAAUAUUACGUGUA | -2.47 ± 0.11 | -1.74 ± 0.089
UCGCAGCAAUAUUACGUGCG | -4.06 ± 0.22 | -3.23 ± 0.3
GUGCAGCAAUAUUACGAGGG | -2.79 ± 0.21 | -1.87 ± 0.27
